Data published in patent publication US12138415B2, “Increased bioavailability of transdermally delivered agents” (priority 2011, dated 2024).

Tests used:
[1] = system: Dynamin; settings: cited from earlier work
[2] = system: monolayer of Caco-2 cells; assay: Caco-2 monolayer permeability (TEER) transport study of FITC-etanercept with Dynasore blocking Dynamin; type: in vitro ADME, human; settings: DN2 polypropylene film, 0.1 mg/mL Dynasore and FITC-conjugated etanercept, FIG. 25
Experimental: The permeability effects of films patterned as described above were determined on a monolayer of Caco-2 cells (human epithelial colorectal adenocarcinoma cells). The effects of the nanostructured surfaces on transcellular transport mechanisms were investigated by blocking Dynamin, a critical protein in endocytosis, with Dynasore. Dynamin is a large GTPase protein that self-assembles into a spiral shape, constricting around budding vesicles to free them from the plasma membrane and into the cytosol for transcellular transport. The small molecule, Dynasore, is able to rapidly block the activity of Dynamin by quickly inhibiting the GTPase module of Dynamin within about 2 minutes and has been used in numerous studies for probing the mechanisms of cellular internalization and endocytosis for transcellular transport. The transport study was a transepithelial electrical resistance (TEER) study that was carried out in the presence of Dynasore to biochemically block the activity of Dynamin and preclude both clathrin and caveolin mediated endocytosis.
Films formed as described in Example 1 and Example 2 were utilized including a polypropylene (PP) film formed with a pattern designated as DN2, and a flat, nonpatterned polypropylene film. As control, a monolayer of cells with no associated film was utilized.
• 1. […] Measure fluorescence signal using a spectrofluorometer plate reader. […]

[3] = system: EpiDerm™ tissue; assay: Etanercept delivery across EpiDerm tissue on nanopatterned film (donor/receptor chamber); type: in vitro ADME; settings: 1 mg/mL, 37° C.; for increase in the amount of etanercept in the receiver chamber: EpiDerm tissue on DN2 patterned film
From the text: A device as illustrated in FIG. 28 was assembled including a film (i.e., a membrane) defining a pattern of nanostructures on a surface thereof. The film was formed as described above in Example 1 and was a polypropylene film including a DN2 pattern on the surface thereof. An EpiDerm™ tissue, a three dimensional construct organized into basal, spinous, and granular layers along a multi-layered stratum corneum available from MatTek Corporation, was located on the surface of the film as described above with regard to the monocellular layer.
A 1 mg/mL composition including the high molecular weight drug etanercept (Enbrel®) was prepared. Etanercept is a fusion protein having a molecular weight of 150 kDa. Phosphate buffered saline was located in the receptor chamber. The system was incubated at 37° C. and samples were withdrawn every five hours.
The composition was loaded in to the donor chamber on one side of an EpiDerm™ tissue either on the DN2 nanostructure film or on a polypropylene film with no nanopattern formed thereon (PPUI), and samples were withdrawn from the receptor chamber on the other side of the cell layer, as illustrated in FIG. 28. As can be see with reference to FIG. 29, following one hour, very little etanercept had passed into the receptor chamber for the control, while there was approximately a 1.7 fold increase in the amount of etanercept in the receiver chamber for the sample on the DN2 patterned film. After two hours, there was an approximately 2-fold increase for the system including the DN2 patterned film.

[4] = Organ and tissue etanercept concentration after 72 hours (sTNF RII ELISA); settings: rabbit
Experimental: Test subjects (rabbits) were transdermally dosed with Enbrel® or were subcutaneously (SubQ) dosed with Enbrel®. […] The subcutaneous dose formulation (for the positive control) was prepared to facilitate a 2.5 mg/animal and the transdermal dose formulation was 1.875 mg/animal. Two subjects were utilized for each device type.
After 72 hours, several different organs and tissue types in each subject were examined for etanercept concentration. Specifically, organ representative samples of approximately 100 mg each were placed in labeled 50 mL conical storage tubes and stored in the dark at approximately −70° C. for preservation testing.
For analysis of Enbrel levels in tissues at the analytical laboratory, tissues were tested by use of a Quantikine® Human sTNF RII/TNFRSF1B Immunoassay (catalog no. DRT200, SRT200, PDRT200) available from R&D Systems, Inc. of Minneapolis, MN, USA. The immunoassay is a solid phase ELISA assay for determination of sTNF RII. The protein was measured against the standard provided with the kit, and etanercept was measured against a standard curve, with concentrations based on the dosage details.
All concentrations are provided as ng/g tissue. The ELISA detection mechanism could be utilized for concentrations down to about 0.6 pg/mL. Results of <MIN signify a concentration too low to be determined by the ELISA assay. Results of N/A indicate an error in the ELISA assay, with no reportable results obtained.

[5] = rabbit, in vivo
From the text: An array of microneedles including a nanopatterned surface was formed. Initially, an array of microneedles as illustrated in FIG. 2 was formed on a silicon wafer via a photolithography process. Each needle included two oppositely placed side channels, aligned with one through-die hole in the base of the needle (not visible on FIG. 2).
Microneedles were formed according to a typical micromachining process on a silicon based wafer. The wafers were layered with resist and/or oxide layers followed by selective etching (oxide etching, DRIE etching, iso etching), resist stripping, oxide stripping, and lithography techniques (e.g., iso lithography, hole lithography, slit lithography) according to standard methods to form the array of microneedles. The microneedles were 300 microns tall and 100 microns in diameter.
Following formation of the microneedle array, a 5 μm polypropylene film including a DN2 or a polypropylene film including a DN3 pattern formed thereon as described above in Example 1 was laid over the microneedle array. The wafer/film structure was held on a heated vacuum box (3″ H2O vacuum) at elevated temperature (130° C.) for a period of one hour to gently pull the film over the surface of the microneedles while maintaining the nanopatterned surface of the film.
The transdermal patches measured 25 mm by 25 mm with a density of 784 microneedles/cm^2. Control patches were also formed that had no pattern formed on the film subsequently applied to the array of microneedles.
Two subjects were utilized for each device type.
Approximately 100 to 200 μl blood was taken via—mandibular bleeding and then centrifuged at approximately 1300 rpm for 10 minutes in a refrigerated centrifuge (set at 4° C.). The resulting serum was aspirated and transferred within 30 minutes of blood collection/centrifugation to appropriately labeled tubes. The tubes were frozen and stored in the dark at ≤−70° C. until they were analyzed for levels of Enbrel® using Human sTNF-receptor ELISA kit (R&D Systems cat #DRT200). The space time between two blood samplings on the same subject was 24 hours, to prevent unnecessary stress placed on the subject.
Following, the blood serum level gradually declined within 56 hours of attachment and then leveled off.

Compound | time to inhibit the GTPase module of Dynamin [1] [min] | effect of blocking the transcellular delivery route on etanercept transport across the layer [2] | increase in the amount of etanercept in the receiver chamber ([3]; after two hours) | increase in the amount of etanercept in the receiver chamber ([3]; following one hour) [fold] | amount of etanercept passed into the receptor chamber ([3]; EpiDerm tissue on polypropylene film with no nanopattern (PPUI, control), following one hour) | etanercept concentration in kidney ([4]; Subcutaneous dose 2.5 mg/animal) [ng/g tissue] | etanercept concentration in kidney ([4]; microneedle patch with Control Film (no pattern), 1.875 mg/animal) [ng/g tissue] | etanercept concentration in kidney ([4]; microneedle patch with DN3 pattern, 1.875 mg/animal) [ng/g tissue] | absorption of etanercept compared to the flat, unstructured device [5] | bioavailability relative to the control patch [5] | blood serum level of etanercept (course) [5] | decrease of time to reach the maximum concentration [5] [h] | increase in the maximum concentration [5] [%] | time of peak blood serum level [5] | time within which blood serum level gradually declined, then leveled off [5] [h]
O=C(N/N=C/c1ccc(O)c(O)c1)c1cc2ccccc2cc1O [Dynasore] | ≤ 2 |  |  |  |  |  |  |  |  |  |  |  |  |  | 
etanercept |  | did not significantly decrease | approximately 2 fold | ~1.7 | very little | 10.14 | 10.66 | 11.3 | significantly increased | about 35 times | very low levels | ~24 | 95 | approximately 48 hours | ≤ 56
